# Results taken from IntAct's records for PubMed 25888478.
# B1: Protein interacting with Hsp90 1 (Saccharomyces cerevisiae), P38768 (parent)
# chain: MADFLLRPIKQRHRNEDKYVSVDAADGSVSKIEPIADFVIKTKLLSANGPEKLQDGRKVFINVCHSPLVPKPEVDFNARIVFPLIIQNEWEIPIITSCYRMDHDKKGQECYVWDCCINSDCSRWICDDIQLREILVEWCLESCEIRDSVVLCRDRIAFPKMKKKGAELPALEVLNDELHQDYKAKMHKIIEEEAGDPMSILRGRNDDGDDNNDPDDGTLPPLFPIENKISGAKIEEIDKNEIAHRNLKQAPAPAPAPHEQQEDVPEYEVKMKRFKGAAYKLRILIENKAPNSKPDRFSPSYNFAENILYINGKLSIPLPRDIVVNAADIKIFHIRKERTLYIYI
# partner: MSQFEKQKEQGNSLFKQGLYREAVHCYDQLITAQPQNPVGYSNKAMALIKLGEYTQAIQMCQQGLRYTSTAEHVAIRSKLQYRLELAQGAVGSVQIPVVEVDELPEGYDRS
# Variants of: B1
# Conditions: with tah1_yeast TAH1, P25638
row,effect of a mutation on the interaction,Variant
1,disrupting interaction,N306S
